Like-named read-outs stand apart in the source and are kept apart here.
Experiments:
[1] = type: physicochemical
Method: (§1) The injection volume was 20 μL.
Ethionamide was prepared at a 10 mg/mL concentration by dissolving it in EtOH. […] Another sample was prepared to which was added 100 μL of ethanol only (no stabilizer), for use as a control sample. […] The reaction mixture was heated to 100° C. for 5 minutes then cooled for 5 minutes in an ambient-temperature water bath. To each sample, 10 μL of 2% Na2EDTA.2H2O in water was added, and then each was analysed by HPLC (Method 2) and stored at room temperature for up to 96 hours.

[2] = type: physicochemical; settings: ^177Lu-A 13.9 mCi/mL, stabilizer 5 mg/mL added after complex preparation, room temperature
Method: as §1
Compounds containing the —C═S moiety [dithiocarbamates and ethionamide] were examined in this study.
Each individual stabilizer was prepared at a concentration of 10 mg/mL in water. Ethionamide was dissolved in EtOH. […] The reaction mixture was heated to 100° C. for 5 minutes, then cooled for 5 minutes in an ambient-temperature water bath. […] To an aliquot, 100 μL of one of the stabilizer solutions (1 mg of stabilizer) was added. Each aliquot was analyzed (t=0 h) by HPLC (Method 2) and stored at room temperature for 48 hours. All samples were analyzed again at t=24 h and 48 h.

[3] = type: physicochemical; remark: listed apart in the source
Method: The ratio of COMPOUND A to Lutetium was 3:1 for all samples. The reaction mixtures were heated, cooled, treated with Na2EDTA.2H2O and analyzed by HPLC as described in Example 13, and then stored at room temperature for 24 hours, at which time all samples were analyzed again.

[4] = Stability in Radiolysis Protecting Solution containing methionine (FIG. 4 and similar study); type: physicochemical; settings: 104 mCi, diluted 1:1 with radiolysis protecting solution (2 mg/mL DL-methionine) added after complex formation, room temperature
Method: Formulations stabilized by such cocktails maintained excellent radiochemical purity (RCP) values (>95% RCP) for as long as 5 days at room temperature. This stabilizing cocktail is added immediately after formation of the radioactive complex, so would be the second vial of a two-vial kit.

[5] = type: physicochemical; settings: 50 mCi/2 mL in Radiolysis Protecting Solution containing L-methionine, room temperature
Method: as §1
A Radiolysis Protecting Solution was prepared to contain 10 mg/mL gentisic acid; 50 mg/mL ascorbic acid sodium salt; 2 mg/mL HSA; 2.98 mg/mL L-methionine, 0.9% (v:v) benzyl alcohol and 1 mg/mL of Na2EDTA.2H2O in 0.05 M, pH 5.3 citrate buffer. […] The mixture was incubated at 100° C. for 5 min, and then cooled to room temperature with a water bath. A 1-mL aliquot of the Radiolysis Protecting Solution was immediately added. The reaction vial was stored in an autosampler chamber and the stability was analyzed by Reversed Phase HPLC over time, using HPLC Methods 3 and 4. The results obtained for ^177Lu-B are shown in the chromatograms in FIG. 9.

[6] = type: physicochemical; settings: Radiolysis Protecting Solution containing L-selenomethionine, room temperature
Method: ^177Lu-A and ^177Lu-B were prepared at a 50 mCi level as described in EXAMPLE 4. Immediately after cooling the reaction mixtures to room temperature, 1 mL of a Radiolysis Protecting solution was added, containing 10 mg/mL gentisic acid; 50 mg/mL ascorbic acid sodium salt; 2 mg/mL HSA; 3.92 mg/mL L-selenomethionine, 0.9% (v:v) benzyl alcohol and 1 mg/mL of Na2EDTA.2H2O in 0.05 M, pH 5.3 citrate buffer. The reaction vials were stored in the autosampler chamber and the stability was analysed by RP-HPLC over time using HPLC Methods 3 [^177Lu-A] or 4 [^177Lu-B].

[7] = type: physicochemical; remark: listed apart in the source
Method: The reaction vial was crimp-sealed and heated at 100° C. for 10 min. […] The sample was stored in an autosampler in which the temperature is ˜6° C. […] than room temperature, and analyzed by RP-HPLC for up to 120 hours.

[8] = Radiostability (RCP, Met═O by HPLC) of preformed ^177Lu-A with individual amino acids added (Example 1); type: physicochemical; settings: amino acid 6.6 mg/mL, room temperature
Method: as §1
Solutions of the individual amino acids L-Methionine, L-Selenomethionine, L-cysteine HCl.H2O, L-Tryptophan, L-Histidine, and Glycine were prepared at a concentration of 10 mg/mL in 10 mM Dulbecco's phosphate-buffered saline, pH 7.0 [PBS].
The final radioactive concentration of each sample was ˜20 mCi/mL.

[9] = ^177Lu-A 50 mCi in 2 mL, room temperature

CCc1cc(C(N)=S)ccn1 [Ethionamide, 2-Ethyl-4-pyridinecarbothioamide (Ethionamide), reference compound]
RCP % t = 0 h ([1]; ^177Lu-A (5.25 mCi avg) prepared in presence of stabilizer ~3.33 mg/mL, 0 h): 100%
RCP % t = 24 h ([1]; ^177Lu-A prepared in presence of stabilizer ~3.33 mg/mL, room temperature, 24 h): 98.1%
RCP % t = 96 h ([1]; ^177Lu-A prepared in presence of stabilizer ~3.33 mg/mL, room temperature, 96 h): 94.6%
RCP % t = 0 h ([2]; 0 h): 97.4%
RCP % t = 24 h ([2]; 24 h): 97.0%
RCP % t = 48 h ([2]; 48 h): 94.7%
RCP % t = 0 h ([3]; ^177Lu-A (4.65-5.64 mCi) prepared in presence of stabilizer 5 mg/mL, 0 h): 80.8%
RCP % t = 24 h ([3]; ^177Lu-A prepared in presence of stabilizer 5 mg/mL, room temperature, 24 h): 77.5%

^177Lu-B: the ^177Lu complex of DOTA-Gly-Abz4-Gln-Trp-Ala-Val-Gly-His-Leu-Met-NH2
RCP for 5 days [4]: > 99%
% RCP 0-d ([5]; 0 d): 99.8%
% RCP 1-d ([5]; 1 d): 99.3%
% RCP 2-d ([5]; 2 d): 99.6%
% RCP 5-d ([5]; 5 d): 99.8%
% RCP 0-d ([6]; 50 mCi level, 0 d): 95.8%
% RCP 1-d ([6]; 1 d): 95.7%
% RCP 2-d ([6]; 2 d): 96.2%
% RCP 3-d ([6]; 3 d): 96.7%
% RCP 5-d ([6]; 5 d): 98.4%
RCP (%) ([7]; 110.5 mCi, prepared with L-selenomethionine 2.94 mg/mL, then 4 mL saline with sodium ascorbate 50 mg/mL and benzyl alcohol, 0 hours post-reconstitution): 99.5%
RCP (%) ([7]; L-selenomethionine 2.94 mg/mL plus ascorbate/benzyl alcohol saline, 120 (5 days) hours post-reconstitution): 99.8%
RCP (%) ([7]; L-selenomethionine 2.94 mg/mL plus ascorbate/benzyl alcohol saline, 2 hours post-reconstitution): 99.6%
RCP (%) ([7]; L-selenomethionine 2.94 mg/mL plus ascorbate/benzyl alcohol saline, 3 hours post-reconstitution): 99.5%
RCP (%) ([7]; L-selenomethionine 2.94 mg/mL plus ascorbate/benzyl alcohol saline, 6 hours post-reconstitution): 99.0%
RCP (%) ([7]; L-selenomethionine 2.94 mg/mL plus ascorbate/benzyl alcohol saline, 9 hours post-reconstitution): 99.4%
RCP (%) ([7]; L-selenomethionine 2.94 mg/mL plus ascorbate/benzyl alcohol saline, 12 hours post-reconstitution): 99.2%
RCP (%) ([7]; L-selenomethionine 2.94 mg/mL plus ascorbate/benzyl alcohol saline, 24 hours post-reconstitution): 99.4%

CSCC[C@H](N)C(=O)O [L-Methionine]
0-1 h RCP (%) ([8]; ^177Lu-A ~20 mCi/mL (3.5 mCi total), 0-1 h): 100%
24-h RCP (%) ([8]; ^177Lu-A ~20 mCi/mL, 24 h): 99.3%
48-h RCP (%) ([8]; ^177Lu-A ~20 mCi/mL, 48 h): 94%
% RCP 0-d ([9]; 2.5 mg/mL L-methionine (5 mg), 0 d): 96.1%
% RCP 1-d ([9]; 2.5 mg/mL L-methionine, 1 d): 53.5%
% RCP 2-d ([9]; 2.5 mg/mL L-methionine, 2 d): 26.9%
% RCP 5-d ([9]; 2.5 mg/mL L-methionine, 5 d): 0%

Source: US20120065365A1, “Stable Radiopharmaceutical Compositions and Methods for Their Preparation” (BRACCO IMAGING S.P.A., priority 2003, published 2012)
